For assay [1], the target named is C1q (human) (UniProt P02745).
In assay [2] the target is CD20 antigen (Homo sapiens (Human)) (UniProt P11836).
In assay [3] the target is C1q (human) (UniProt P02745). The assay is described as follows: C1q binding ELISA, antibody coated.
Assay [4] deals with CD20 antigen (Homo sapiens (Human)) (UniProt P11836). The assay is described as follows: flow cytometry on WIL2-S cells, EC50 against C2B8 reference. (In general: Flow cytometry measures light scatter and fluorescence of single cells or particles in a stream.)
The target in assay [5] is C1q (human) (UniProt P02745). Put plainly: C1q binding ELISA, antibody coated, up to 100 µg/ml. (An ELISA detects its analyte on a solid surface through an enzyme-linked reagent.)
In assay [6] the target is FcγRI α subunit-GST fusion (Homo sapiens (Human)) (UniProt P12314). The assay is described as follows: ELISA, monomeric IgG on coated FcγRI α subunit-GST.
For assay [7], the target named is FcγRIIIa α subunit ECD-6-His-GST fusion protein (Homo sapiens (Human)) (UniProt P08637). Put plainly: ELISA, E27:chimeric IgE:VEGF complex on coated receptor.
The target of assay [8] is FcγRIIa α subunit ECD-6-His-GST fusion protein (Homo sapiens (Human)) (UniProt P12318). Described as above.
Assay [9] addresses FcγRIIb α subunit ECD-6-His-GST fusion protein (Homo sapiens (Human)) (UniProt P31994). The description is as above.

This is an account of results in US6242195.

Chain of FcγRIIIa α subunit ECD-6-His-GST fusion protein (Homo sapiens (Human)) (P08637 17-208): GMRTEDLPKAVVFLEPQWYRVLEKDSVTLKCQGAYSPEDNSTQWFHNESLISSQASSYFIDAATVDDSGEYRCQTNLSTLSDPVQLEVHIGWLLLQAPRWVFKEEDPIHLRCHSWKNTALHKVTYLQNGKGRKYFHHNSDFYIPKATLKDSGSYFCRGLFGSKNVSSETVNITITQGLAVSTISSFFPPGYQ
Chain of FcγRI α subunit-GST fusion (Homo sapiens (Human)) (P12314 16-292): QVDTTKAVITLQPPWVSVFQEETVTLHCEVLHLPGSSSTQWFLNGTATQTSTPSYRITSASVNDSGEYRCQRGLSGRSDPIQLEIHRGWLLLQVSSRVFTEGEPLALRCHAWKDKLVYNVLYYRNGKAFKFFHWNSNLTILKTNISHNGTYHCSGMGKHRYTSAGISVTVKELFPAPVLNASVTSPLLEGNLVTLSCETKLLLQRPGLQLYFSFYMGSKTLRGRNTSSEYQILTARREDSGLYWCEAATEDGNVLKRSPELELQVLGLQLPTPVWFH

Turning to C2B8 mutant E318A (antibody), the CDC, percentage of the wild type (% of wild type) (with C1q (human) [1]; in assay [2]) was 108 in each case. For the same substance, the decrease in binding to C1q against wild type C2B8 in the assay with C1q (human) [3] was 30%. Also, in [4], the CD20 binding, percentage of the wild type (% of wild type) came out at 89.

As for C2B8 mutant K320A (antibody), the CDC, percentage of the wild type (% of wild type) (in the assay with C1q (human) [1]; in [2]) was 108 in each case. For the same substance, the CD20 binding, percentage of the wild type (% of wild type) in assay [4] came to 102.

Regarding C2B8 mutant P329A (antibody), the CD20 binding, percentage of the wild type (% of wild type) in assay [4] was determined as 112.

As to C2B8 mutant P331A (antibody), the fold lower binding to C1q than wild type C2B8 with C1q (human) [5] stood at 60 fold lower. Further, the CD20 binding, percentage of the wild type (% of wild type) in assay [4] is 103.

E27 anti-IgE antibody, Fc mutant E318A: the binding, percentage of the wild type (% of wild type) in assay [6] came out at 93; in assay [7], 104; in [8] it was 113; in assay [9], 106.

As to E27 anti-IgE antibody, Fc mutant K320A, the binding, percentage of the wild type (% of wild type) is 102 in [6], 72 in assay [7] and 83 in [9].

On to E27 anti-IgE antibody, Fc mutant K322A, for which the values for the binding, percentage of the wild type (% of wild type) in assay [8] and in [9] were 109 and 101, respectively.

E27 anti-IgE antibody, Fc mutant P329A: the figures for the binding, percentage of the wild type (% of wild type) in assay [6] and in assay [7] were 104 and 85, respectively.

For E27 anti-IgE antibody, Fc mutant P331A, the binding, percentage of the wild type (% of wild type) in assay [6] stood at 74; in assay [7], 73; in assay [8], 86; in assay [9] it was 58.
